Measured values published in patent US20010018511A1 (CANCER RESEARCH CAMPAIGN TECHNOLOGY, published 2001).

Biological target: T1, GST-hdm2 (1-188) (S. japonicum; human, UniProt Q00987 1-188)
T1 construct: range 1-188; Fusion made in E. coli BL21 from pGEX-2T; GST, linker, hdm2 1-188 in this order; also called GST-hdm2 protein
Assay: single clone phage ELISA on coated antigen
Experimental: Amplified and purified phages from this round of biopanning are tested in an ELISA on the proteins used for their selection. For single clone screening E.coli K91 cells are infected with appropriate phage dilutions and spread on LB agar with 20 μg/ml tetracycline. Single colonies are transfered to wells of a 96-well tissue culture plate containing 200 μl 2×YT medium with 20 μg/ml tetracycline per well. Phage supernatant is collected for ELISA screening after a 24 hour incubation at 37° C. with shaking. ELISA positive clones are grown up as 2 ml bacterial cultures in 2×YT medium with 20 μg/ml tetracycline for 24 hours. Phage are PEG precipitated and redissolved in 200 μl TBS buffer. Phage DNA is extracted with phenol/chloroform and ethanol precipitated. The DNA pellet is redissolved in 10 μl water and used as template for sequencing (Sequenase).
100 μl phage suspension (supernatant or PEG concentrated phage) is diluted in PBST-M and added for three hours at 4° C. Bound phages are reacted with 100 μl HRP-labelled sheep anti-M13 antibody (Pharmacia) for one hour at room temperature followed by substrate development with 100 μl TMB/H202 (0.1 mg/ml TMB, 0.3% H₂O₂ in 0.1 M Na-acetate, pH 6.0) for 15 min. The reaction is stopped by adding 100 μl 1 M sulphuric acid to the substrate and the absorbance is measured at 450 nm. All washings between the incubation steps are done with tap water.

T1 sequence (Q00987 1-188): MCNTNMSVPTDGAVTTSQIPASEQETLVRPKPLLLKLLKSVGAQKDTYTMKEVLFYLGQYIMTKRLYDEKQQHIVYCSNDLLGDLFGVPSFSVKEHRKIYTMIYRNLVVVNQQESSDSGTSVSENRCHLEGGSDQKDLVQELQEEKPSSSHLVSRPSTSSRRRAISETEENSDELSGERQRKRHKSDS

Row | Binder | binding result
1 | PRPALVFADYWETLY (Tested as whole phage showing the peptide; not shown: minor coat protein III of the filamentous phage of the display library; the peptide stands at its N-terminus; phage stra) [phage clone 15/5] | binds
2 | MPRFMDYWEGLN (Tested as whole phage showing the peptide; not shown: minor coat protein III of the filamentous phage of the display library; the peptide stands at its N-terminus; phage stra) [phage clone 12/1] | binds
3 | VQNFIDYWTQQF (Tested as whole phage showing the peptide; not shown: minor coat protein III of the filamentous phage of the display library; the peptide stands at its N-terminus; phage stra) [phage clone 12/2] | binds
4 | TGPAFTHYWATF (Tested as whole phage showing the peptide; not shown: minor coat protein III of the filamentous phage of the display library; the peptide stands at its N-terminus; phage stra) [phage clone 12/5] | binds
5 | PAFSRFWSDLSAGAH (Tested as whole phage showing the peptide; also called hdm2 phage; hdm2-phage; not shown: minor coat protein III of the filamentous phage of the display library; the peptide stands at its N-terminus; phage stra) [phage clone BB3] | binds
6 | IDRAPTFRDHWFALV (Tested as whole phage showing the peptide; not shown: minor coat protein III of the filamentous phage of the display library; the peptide stands at its N-terminus; phage stra) [phage clone 15/1] | binds
